B1: E3 ubiquitin-protein ligase CHFR (Homo sapiens), Q96EP1-1 (parent)
chain: MERPEEGKQSPPPQPWGRLLRLGAEEGEPHVLLRKREWTIGRRRGCDLSFPSNKLVSGDHCRIVVDEKSGQVTLEDTSTSGTVINKLKVVKKQTCPLQTGDVIYLVYRKNEPEHNVAYLYESLSEKQGMTQESFEANKENVFHGTKDTSGAGAGRGADPRVPPSSPATQVCFEEPQPSTSTSDLFPTASASSTEPSPAGRERSSSCGSGGGGISPKGSGPSVASDEVSSFASALPDRKTASFSSLEPQDQEDLEPVKKKMRGDGDLDLNGQLLVAQPRRNAQTVHEDVRAAAGKPDKMEETLTCIICQDLLHDCVSLQPCMHTFCAACYSGWMERSSLCPTCRCPVERICKNHILNNLVEAYLIQHPDKSRSEEDVQSMDARNKITQDMLQPKVRRSFSDEEGSSEDLLELSDVDSESSDISQPYVVCRQCPEYRRQAAQPPHCPAPEGEPGAPQALGDAPSTSVSLTTAVQDYVCPLQGSHALCTCCFQPMPDRRAEREQDPRVAPQQCAVCLQPFCHLYWGCTRTGCYGCLAPFCELNLGDKCLDGVLNNNSYESDILKNYLATRGLTWKNMLTESLVALQRGVFLLSDYRVTGDTVLCYCCGLRSFRELTYQYRQNIPASELPVAVTSRPDCYWGRNCRTQVKAHHAMKFNHICEQTRFKN
B2: Aprataxin and PNK-like factor (Homo sapiens), Q8IW19 (parent)
chain: MSGGFELQPRDGGPRVALAPGETVIGRGPLLGITDKRVSRRHAILEVAGGQLRIKPIHTNPCFYQSSEKSQLLPLKPNLWCYLNPGDSFSLLVDKYIFRILSIPSEVEMQCTLRNSQVLDEDNILNETPKSPVINLPHETTGASQLEGSTEIAKTQMTPTNSVSFLGENRDCNKQQPILAERKRILPTWMLAEHLSDQNLSVPAISGGNVIQGSGKEEICKDKSQLNTTQQGRRQLISSGSSENTSAEQDTGEECKNTDQEESTISSKEMPQSFSAITLSNTEMNNIKTNAQRNKLPIEELGKVSKHKIATKRTPHKEDEAMSCSENCSSAQGDSLQDESQGSHSESSSNPSNPETLHAKATDSVLQGSEGNKVKRTSCMYGANCYRKNPVHFQHFSHPGDSDYGGVQIVGQDETDDRPECPYGPSCYRKNPQHKIEYRHNTLPVRNVLDEDNDNVGQPNEYDLNDSFLDDEEEDYEPTDEDSDWEPGKEDEEKEDVEELLKEAKRFMKRK

Variants of: B1
Conditions: with parp1_human PARP1, P09874
Target sequence in this assay (P09874 whole entry): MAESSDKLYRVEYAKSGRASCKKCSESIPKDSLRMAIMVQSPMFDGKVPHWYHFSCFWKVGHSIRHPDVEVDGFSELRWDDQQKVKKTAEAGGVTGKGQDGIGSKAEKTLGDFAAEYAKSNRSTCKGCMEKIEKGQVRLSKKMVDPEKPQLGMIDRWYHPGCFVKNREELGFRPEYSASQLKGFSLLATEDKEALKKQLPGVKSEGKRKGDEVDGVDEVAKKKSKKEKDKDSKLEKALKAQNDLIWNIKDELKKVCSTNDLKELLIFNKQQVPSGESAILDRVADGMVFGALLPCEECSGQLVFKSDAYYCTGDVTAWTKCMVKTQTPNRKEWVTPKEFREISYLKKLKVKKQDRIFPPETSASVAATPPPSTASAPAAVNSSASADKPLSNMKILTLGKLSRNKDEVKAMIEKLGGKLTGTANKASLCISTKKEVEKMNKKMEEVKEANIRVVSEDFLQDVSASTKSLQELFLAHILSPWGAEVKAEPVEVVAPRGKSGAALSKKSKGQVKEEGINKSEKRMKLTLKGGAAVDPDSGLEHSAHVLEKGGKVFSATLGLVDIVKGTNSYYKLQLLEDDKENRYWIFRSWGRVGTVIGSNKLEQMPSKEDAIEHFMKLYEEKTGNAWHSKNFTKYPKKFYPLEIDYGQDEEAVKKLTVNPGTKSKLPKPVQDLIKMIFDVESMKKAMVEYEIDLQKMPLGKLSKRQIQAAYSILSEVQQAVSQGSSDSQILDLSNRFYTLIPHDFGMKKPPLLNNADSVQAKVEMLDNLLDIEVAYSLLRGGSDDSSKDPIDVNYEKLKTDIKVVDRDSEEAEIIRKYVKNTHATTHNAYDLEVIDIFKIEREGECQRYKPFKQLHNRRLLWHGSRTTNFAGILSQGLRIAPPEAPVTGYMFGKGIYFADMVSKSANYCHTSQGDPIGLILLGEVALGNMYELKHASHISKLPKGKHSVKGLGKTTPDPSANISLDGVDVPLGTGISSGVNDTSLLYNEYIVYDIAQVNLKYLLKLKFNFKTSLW

effect of a mutation on the interaction	Variant
disrupting interaction	C635A;C641A

Variants of: B2
Conditions: with parp1_human PARP1, P09874
Target sequence in this assay (P09874 whole entry): as above

effect of a mutation on the interaction	Variant
disrupting interaction	C379A;C385A;C421A;C427A
